Ends that are not written are not given here. * marks the point of attachment. Biotin = O=C1N[C@H]2[C@H](CS[C@H]2CCCCC(=O)*)N1
What was measured:
Experiment in all cases: peptide or protein array; E. coli proteome chip: purified His-tagged proteins printed in duplicate on Fullmoon slides, blocked with 1% BSA; 10 nM N-terminal biotinylated LfcinB with 1% BSA, room temperature, 1 h; detected with DyLight 649-labeled streptavidin, ratio to DyLight 549-labeled anti-His antibody; ProCAT normalisation, local cut-off; triplicate chips
Conditions in all cases: both partners purified
IlvL = target: T1, IlvL (E. coli K-12, UniProt P62522 1-32)
T1 construct: IlvL, E. coli K-12
T1 chain (looked up): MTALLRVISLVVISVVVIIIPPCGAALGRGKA

CadA = target: T2, CadA (E. coli K-12, UniProt P0A9H3 1-715)
T2 construct: CadA, E. coli K-12
T2 sequence (looked up): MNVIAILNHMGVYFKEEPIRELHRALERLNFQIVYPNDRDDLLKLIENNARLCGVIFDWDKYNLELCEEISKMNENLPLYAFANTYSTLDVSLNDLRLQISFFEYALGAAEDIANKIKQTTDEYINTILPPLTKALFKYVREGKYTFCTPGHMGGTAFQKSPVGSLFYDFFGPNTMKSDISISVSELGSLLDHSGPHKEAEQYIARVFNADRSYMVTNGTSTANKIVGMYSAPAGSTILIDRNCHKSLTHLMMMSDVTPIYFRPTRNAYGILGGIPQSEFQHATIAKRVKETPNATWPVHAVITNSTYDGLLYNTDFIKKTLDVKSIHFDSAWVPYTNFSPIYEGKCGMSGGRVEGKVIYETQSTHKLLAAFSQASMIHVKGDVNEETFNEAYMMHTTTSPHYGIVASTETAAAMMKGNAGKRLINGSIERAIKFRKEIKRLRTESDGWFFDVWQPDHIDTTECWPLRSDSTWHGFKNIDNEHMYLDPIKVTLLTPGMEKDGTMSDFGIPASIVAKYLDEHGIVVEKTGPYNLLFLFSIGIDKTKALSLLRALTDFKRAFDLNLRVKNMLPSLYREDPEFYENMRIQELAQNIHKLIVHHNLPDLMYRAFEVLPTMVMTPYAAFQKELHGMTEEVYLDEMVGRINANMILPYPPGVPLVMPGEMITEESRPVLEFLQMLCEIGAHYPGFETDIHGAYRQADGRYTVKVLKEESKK

YjdI = target: T3, YjdI (E. coli K-12, UniProt P0AF59 1-76)
T3 construct: YjdI, E. coli K-12
T3 sequence (looked up): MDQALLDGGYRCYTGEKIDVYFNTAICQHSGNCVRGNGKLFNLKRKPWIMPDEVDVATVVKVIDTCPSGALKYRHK

YfiQ = target: T4, YfiQ (E. coli K-12, UniProt P76594 1-886)
T4 construct: YfiQ, E. coli K-12
T4 sequence (looked up): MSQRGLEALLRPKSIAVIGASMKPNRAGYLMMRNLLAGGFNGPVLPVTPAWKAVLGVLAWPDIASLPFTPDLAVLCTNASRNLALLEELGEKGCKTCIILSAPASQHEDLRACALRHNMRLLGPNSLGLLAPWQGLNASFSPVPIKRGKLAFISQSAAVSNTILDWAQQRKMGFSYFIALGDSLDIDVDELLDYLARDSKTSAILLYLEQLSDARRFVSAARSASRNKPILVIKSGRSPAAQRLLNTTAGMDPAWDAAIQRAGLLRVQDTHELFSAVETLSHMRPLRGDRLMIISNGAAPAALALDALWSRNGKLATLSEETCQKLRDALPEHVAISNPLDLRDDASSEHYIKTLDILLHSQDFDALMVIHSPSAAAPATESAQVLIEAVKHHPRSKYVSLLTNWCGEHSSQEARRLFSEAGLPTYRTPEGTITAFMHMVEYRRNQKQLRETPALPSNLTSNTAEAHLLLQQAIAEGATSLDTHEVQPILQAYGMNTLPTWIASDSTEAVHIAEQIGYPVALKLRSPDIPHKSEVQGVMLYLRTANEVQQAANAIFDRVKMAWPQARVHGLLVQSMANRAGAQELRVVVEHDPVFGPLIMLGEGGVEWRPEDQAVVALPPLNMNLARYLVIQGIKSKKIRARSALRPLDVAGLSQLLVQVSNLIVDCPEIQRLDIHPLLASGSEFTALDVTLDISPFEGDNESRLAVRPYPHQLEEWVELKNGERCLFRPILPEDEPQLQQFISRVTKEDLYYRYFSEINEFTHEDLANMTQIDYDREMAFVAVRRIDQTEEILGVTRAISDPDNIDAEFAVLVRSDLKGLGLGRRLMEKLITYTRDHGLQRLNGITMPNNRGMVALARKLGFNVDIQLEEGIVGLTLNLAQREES

CbpA = target: T5, CbpA (E. coli K-12, UniProt P36659 1-306)
T5 construct: CbpA, E. coli K-12
T5 sequence (looked up): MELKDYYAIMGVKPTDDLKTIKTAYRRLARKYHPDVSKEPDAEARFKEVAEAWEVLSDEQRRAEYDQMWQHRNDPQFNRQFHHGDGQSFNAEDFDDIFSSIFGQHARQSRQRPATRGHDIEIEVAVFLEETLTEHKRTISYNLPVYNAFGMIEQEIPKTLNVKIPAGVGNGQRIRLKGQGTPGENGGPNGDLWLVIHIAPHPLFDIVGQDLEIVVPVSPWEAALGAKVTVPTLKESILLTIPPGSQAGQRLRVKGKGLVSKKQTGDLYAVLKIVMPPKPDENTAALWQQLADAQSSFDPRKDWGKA

Measured: binding result

B1: N-terminal biotinylated Lactoferricin B (peptide, UniProt P24627 36-60, looked up)
peptide: Biotin-FKCRRWQWRMKKLGAPSITCVRRAF
modifications: ends and bridges not checked
notes: lactoferricin B (LfcinB), cationic antimicrobial peptide of 25 amino acids; also called biotinylated LfcinB; biotin-labeled LfcinB; source: bought: Kelowna Inc
binds: all assays above

From publication PMC3229523, “Identification of Lactoferricin B Intracellular Targets Using an Escherichia coli Proteome Chip” (PLoS ONE, 2011)
